# Data reported in article PMC9352680, “A comprehensive thermodynamic model for RNA binding by the Saccharomyces cerevisiae Pumilio protein PUF4”.
# T1: PUF4 RNA-binding domain (Saccharomyces cerevisiae, UniProt P25339 537-888)
# T1 sequence: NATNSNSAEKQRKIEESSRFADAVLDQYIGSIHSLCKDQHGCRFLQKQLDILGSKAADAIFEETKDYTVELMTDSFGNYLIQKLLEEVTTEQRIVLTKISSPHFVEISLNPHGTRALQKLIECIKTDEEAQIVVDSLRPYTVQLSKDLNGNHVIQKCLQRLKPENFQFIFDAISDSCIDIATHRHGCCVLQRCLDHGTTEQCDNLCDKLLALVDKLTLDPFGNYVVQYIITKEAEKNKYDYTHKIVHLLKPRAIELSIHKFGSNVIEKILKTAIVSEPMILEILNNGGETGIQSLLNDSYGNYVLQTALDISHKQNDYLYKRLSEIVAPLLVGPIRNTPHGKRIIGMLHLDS
# Target: T1, PUF4 RNA-binding domain
# Assay: Mg; RNA-MaP; 20 mM Na-HEPES pH 7.4, 30 mM KOAc, 0.75 mM MgCl2, 0.1% Tween-20, 5% glycerol, 0.1 mg/mL BSA, 2 mM DTT; 25 C; 0.0125-409.6 nM protein
# Details: tags: N-His6-TEV cleaved; C-SNAP kept, Cy3B-labelled; label: tethered on chip by stalled RNA polymerase
row,Binder,Kd
1,UCUCUUUGUAUUGGUUUCUCUU (ssRNA) [Ic_S1_P5E.1_K5.1_C5.1_H5.1_A5.1_[A7G]_F5.1_[T8G]_[A10T]_T5.1],711 nM
2,UCUCUUUGUAGUACCUUCUCUU (ssRNA) [Ic_S1_P5E.1_K5.1_C5.1_H5.1_A5.1_[T5G]_F5.1_[T8C]_[T9C]_[A10T]_T5.1],> 2300 nM
3,UCUCUUUGUAAUAAUGUCUCUU (ssRNA) [Ic_S1_P5E.1_K5.1_C5.1_H5.1_A5.1_[T5A]_F5.1_[T8A]_[A10G]_T5.1],521 nM
4,UCUCUUUGUACCUAGCUCUCUU (ssRNA) [Ic_S1_P5E.1_K5.1_C5.1_H5.1_A5.1_[T5C]_[T6C]_[A7T]_F5.1_[T8A]_[T9G]_[A10C]_T5.1],114 nM
5,UCUCUUUGUAACACCUUCUCUU (ssRNA) [Ic_S1_P5E.1_K5.1_C5.1_H5.1_A5.1_[T5A]_[T6C]_F5.1_[T8C]_[T9C]_[A10T]_T5.1],621 nM
6,UCUCUUUGUAUACGUUUCUCUU (ssRNA) [Ic_S1_P5E.1_K5.1_C5.1_H5.1_A5.1_[T6A]_[A7C]_F5.1_[T8G]_[A10T]_T5.1],43.4 nM
7,UCUCUUUGUACUGUGUUCUCUU (ssRNA) [Ic_S1_P5E.1_K5.1_C5.1_H5.1_A5.1_[T5C]_[A7G]_F5.1_[T9G]_[A10T]_T5.1],27.2 nM
8,UCUCUUGGUACAUAUCUCUU (ssRNA) [Ib_S1_P3E.1_K3.1_C3.1_H3.1_[T1G]_A3.1_[T5C]_F3.1_T3.1],1550 nM
9,UCUCUUUGUAGCUGCCUCUCUU (ssRNA) [Ic_S1_P5E.1_K5.1_C5.1_H5.1_A5.1_[T5G]_[T6C]_[A7T]_F5.1_[T8G]_[T9C]_[A10C]_T5.1],> 2300 nM
10,UCUCUUUGCGUAUAUCUCUU (ssRNA) [Ib_S1_P3E.1_K3.1_C3.1_H3.1_[T3C]_[A4G]_A3.1_F3.1_T3.1],> 2300 nM
11,UCUCUUUGUAAGUUAGUCUCUU (ssRNA) [Ic_S1_P5E.1_K5.1_C5.1_H5.1_A5.1_[T5A]_[T6G]_[A7T]_F5.1_[T9A]_[A10G]_T5.1],17.2 nM
12,UCUCUUUGUACAUCCAUCUCUU (ssRNA) [Ic_S1_P5E.1_K5.1_C5.1_H5.1_A5.1_[T5C]_[T6A]_[A7T]_F5.1_[T8C]_[T9C]_T5.1],29.4 nM
13,UCUCUUUGUACCUUAGUCUCUU (ssRNA) [Ic_S1_P5E.1_K5.1_C5.1_H5.1_A5.1_[T5C]_[T6C]_[A7T]_F5.1_[T9A]_[A10G]_T5.1],2.41 nM
14,UCUCUUUGUACUGCACUCUCUU (ssRNA) [Ic_S1_P5E.1_K5.1_C5.1_H5.1_A5.1_[T5C]_[A7G]_F5.1_[T8C]_[T9A]_[A10C]_T5.1],724 nM
15,UCUCUUUGUAGCUGGUUCUCUU (ssRNA) [Ic_S1_P5E.1_K5.1_C5.1_H5.1_A5.1_[T5G]_[T6C]_[A7T]_F5.1_[T8G]_[T9G]_[A10T]_T5.1],> 2300 nM
16,UCUCUUUGUACCACCGUCUCUU (ssRNA) [Ic_S1_P5E.1_K5.1_C5.1_H5.1_A5.1_[T5C]_[T6C]_F5.1_[T8C]_[T9C]_[A10G]_T5.1],821 nM

row,Binder,Kd
1,UCUCUUUGUAUUCCAAUCUCUU (ssRNA) [Ic_S1_P5E.1_K5.1_C5.1_H5.1_A5.1_[A7C]_F5.1_[T8C]_[T9A]_T5.1],526 nM
2,UCUCUUUUUUUAUAUCUCUU (ssRNA) [Ib_S1_P3E.1_K3.1_C3.1_H3.1_[G2T]_[A4T]_A3.1_F3.1_T3.1],> 2300 nM
3,UCUCUUUGUAUAUUCCUCUCUU (ssRNA) [Ic_S1_P5E.1_K5.1_C5.1_H5.1_A5.1_[T6A]_[A7T]_F5.1_[T9C]_[A10C]_T5.1],5.93 nM
4,UCUCUUUGUAAUUCCUUCUCUU (ssRNA) [Ic_S1_P5E.1_K5.1_C5.1_H5.1_A5.1_[T5A]_[A7T]_F5.1_[T8C]_[T9C]_[A10T]_T5.1],448 nM
5,UCUCUUUGUAAUCAUCUCUCUU (ssRNA) [Ic_S1_P5E.1_K5.1_C5.1_H5.1_A5.1_[T5A]_[A7C]_F5.1_[T8A]_[A10C]_T5.1],482 nM
6,UCUCUUUGUAGCGUAAUCUCUU (ssRNA) [Ic_S1_P5E.1_K5.1_C5.1_H5.1_A5.1_[T5G]_[T6C]_[A7G]_F5.1_[T9A]_T5.1],300 nM
7,UCUCUUUGACUAUAUCUCUU (ssRNA) [Ib_S1_P3E.1_K3.1_C3.1_H3.1_[T3A]_[A4C]_A3.1_F3.1_T3.1],> 2300 nM
8,UCUCUUUGUACCCUUUUCUCUU (ssRNA) [Ic_S1_P5E.1_K5.1_C5.1_H5.1_A5.1_[T5C]_[T6C]_[A7C]_F5.1_[A10T]_T5.1],35.9 nM
9,UCUCUUUGUACCUGCUUCUCUU (ssRNA) [Ic_S1_P5E.1_K5.1_C5.1_H5.1_A5.1_[T5C]_[T6C]_[A7T]_F5.1_[T8G]_[T9C]_[A10T]_T5.1],378 nM
10,UCUCUUUGUACUUGUUUCUCUU (ssRNA) [Ic_S1_P5E.1_K5.1_C5.1_H5.1_A5.1_[T5C]_[A7T]_F5.1_[T8G]_[A10T]_T5.1],87.4 nM
11,UCUCUUUGUACGUUCAUCUCUU (ssRNA) [Ic_S1_P5E.1_K5.1_C5.1_H5.1_A5.1_[T5C]_[T6G]_[A7T]_F5.1_[T9C]_T5.1],51.8 nM
12,UCUCUUUGUACUCACGUCUCUU (ssRNA) [Ic_S1_P5E.1_K5.1_C5.1_H5.1_A5.1_[T5C]_[A7C]_F5.1_[T8A]_[T9C]_[A10G]_T5.1],1100 nM
13,UCUCUUUGUAAUAACUUCUCUU (ssRNA) [Ic_S1_P5E.1_K5.1_C5.1_H5.1_A5.1_[T5A]_F5.1_[T8A]_[T9C]_[A10T]_T5.1],1100 nM
14,UCUCUUUGUAAUACCUUCUCUU (ssRNA) [Ic_S1_P5E.1_K5.1_C5.1_H5.1_A5.1_[T5A]_F5.1_[T8C]_[T9C]_[A10T]_T5.1],690 nM
15,UCUCUUUGUAAAUACUUCUCUU (ssRNA) [Ic_S1_P5E.1_K5.1_C5.1_H5.1_A5.1_[T5A]_[T6A]_[A7T]_F5.1_[T8A]_[T9C]_[A10T]_T5.1],37.4 nM
16,UCUCUUUGUACGUGUUUCUCUU (ssRNA) [Ic_S1_P5E.1_K5.1_C5.1_H5.1_A5.1_[T5C]_[T6G]_[A7T]_F5.1_[T8G]_[A10T]_T5.1],98.8 nM
